Measured values: article PMC8473724

Tests used:
Experiment in all cases: anti-FLAG co-immunoprecipitation, SILAC LC-MS
Conditions in all cases: chain shown with the change; Ramos PTP1B KO cells; n = 3; read off a plot; scale: log10 SILAC ratio
[1] = target: amyloid-like protein 2 (APLP2), Q06481
[2] = target: T1, epidermal growth factor receptor substrate 15-like 1 (EPS15L1), Q9UBC2
T1 chain: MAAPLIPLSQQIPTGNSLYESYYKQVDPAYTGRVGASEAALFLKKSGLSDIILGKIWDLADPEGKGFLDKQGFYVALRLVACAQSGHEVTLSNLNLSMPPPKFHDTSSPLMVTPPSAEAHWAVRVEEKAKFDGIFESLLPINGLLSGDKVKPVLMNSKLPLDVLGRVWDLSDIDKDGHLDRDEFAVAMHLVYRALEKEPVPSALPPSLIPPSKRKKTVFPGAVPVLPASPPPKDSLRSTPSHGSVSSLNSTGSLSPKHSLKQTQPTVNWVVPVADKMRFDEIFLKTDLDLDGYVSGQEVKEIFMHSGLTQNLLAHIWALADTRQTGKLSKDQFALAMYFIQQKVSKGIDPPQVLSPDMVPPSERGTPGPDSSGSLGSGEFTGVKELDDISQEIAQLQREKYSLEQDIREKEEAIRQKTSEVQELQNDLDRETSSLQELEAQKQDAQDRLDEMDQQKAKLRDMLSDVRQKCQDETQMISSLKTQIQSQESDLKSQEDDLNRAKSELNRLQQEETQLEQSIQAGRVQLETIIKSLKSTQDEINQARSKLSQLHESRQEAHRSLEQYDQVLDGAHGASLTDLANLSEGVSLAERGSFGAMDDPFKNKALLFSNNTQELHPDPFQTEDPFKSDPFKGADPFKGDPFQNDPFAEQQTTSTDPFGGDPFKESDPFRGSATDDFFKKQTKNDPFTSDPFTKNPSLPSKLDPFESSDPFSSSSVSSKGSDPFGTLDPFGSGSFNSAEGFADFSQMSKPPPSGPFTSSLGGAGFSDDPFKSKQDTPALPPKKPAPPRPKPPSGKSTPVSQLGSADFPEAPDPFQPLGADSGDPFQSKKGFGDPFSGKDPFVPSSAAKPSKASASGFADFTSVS

PLCγ2, P16885 = target: T2, PLCγ2, P16885
T2 chain: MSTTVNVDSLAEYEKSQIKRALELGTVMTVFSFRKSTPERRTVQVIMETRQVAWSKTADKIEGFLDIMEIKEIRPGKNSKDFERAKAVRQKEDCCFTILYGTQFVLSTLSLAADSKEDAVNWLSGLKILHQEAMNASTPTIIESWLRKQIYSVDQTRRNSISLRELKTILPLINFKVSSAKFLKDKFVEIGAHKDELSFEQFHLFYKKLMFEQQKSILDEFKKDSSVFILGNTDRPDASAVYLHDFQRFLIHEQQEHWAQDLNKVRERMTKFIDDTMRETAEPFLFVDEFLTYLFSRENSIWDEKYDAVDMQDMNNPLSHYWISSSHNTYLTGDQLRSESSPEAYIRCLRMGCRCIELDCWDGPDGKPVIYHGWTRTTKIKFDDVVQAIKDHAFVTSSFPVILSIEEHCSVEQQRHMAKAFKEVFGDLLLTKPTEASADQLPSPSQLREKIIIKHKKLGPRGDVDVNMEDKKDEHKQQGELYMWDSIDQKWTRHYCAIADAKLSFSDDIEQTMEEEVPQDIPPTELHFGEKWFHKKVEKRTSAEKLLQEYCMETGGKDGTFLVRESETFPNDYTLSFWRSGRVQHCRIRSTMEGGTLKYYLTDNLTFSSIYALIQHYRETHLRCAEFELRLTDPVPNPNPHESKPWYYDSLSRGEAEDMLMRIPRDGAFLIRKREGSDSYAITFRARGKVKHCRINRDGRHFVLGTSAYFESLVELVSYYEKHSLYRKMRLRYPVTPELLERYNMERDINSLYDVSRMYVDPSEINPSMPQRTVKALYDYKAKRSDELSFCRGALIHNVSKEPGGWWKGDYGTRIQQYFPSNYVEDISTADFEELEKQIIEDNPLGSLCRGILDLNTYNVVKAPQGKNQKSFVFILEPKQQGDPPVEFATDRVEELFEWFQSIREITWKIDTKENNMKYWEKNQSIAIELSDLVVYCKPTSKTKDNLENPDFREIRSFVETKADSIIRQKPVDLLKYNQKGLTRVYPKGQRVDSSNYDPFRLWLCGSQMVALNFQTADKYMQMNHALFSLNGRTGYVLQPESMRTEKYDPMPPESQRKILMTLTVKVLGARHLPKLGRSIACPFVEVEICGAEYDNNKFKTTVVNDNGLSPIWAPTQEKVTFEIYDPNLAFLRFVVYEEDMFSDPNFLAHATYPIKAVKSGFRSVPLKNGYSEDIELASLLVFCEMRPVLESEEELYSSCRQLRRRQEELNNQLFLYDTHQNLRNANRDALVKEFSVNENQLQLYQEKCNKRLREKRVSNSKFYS

PLCγ1, P19174 = target: T3, PLCγ1, P19174
T3 chain: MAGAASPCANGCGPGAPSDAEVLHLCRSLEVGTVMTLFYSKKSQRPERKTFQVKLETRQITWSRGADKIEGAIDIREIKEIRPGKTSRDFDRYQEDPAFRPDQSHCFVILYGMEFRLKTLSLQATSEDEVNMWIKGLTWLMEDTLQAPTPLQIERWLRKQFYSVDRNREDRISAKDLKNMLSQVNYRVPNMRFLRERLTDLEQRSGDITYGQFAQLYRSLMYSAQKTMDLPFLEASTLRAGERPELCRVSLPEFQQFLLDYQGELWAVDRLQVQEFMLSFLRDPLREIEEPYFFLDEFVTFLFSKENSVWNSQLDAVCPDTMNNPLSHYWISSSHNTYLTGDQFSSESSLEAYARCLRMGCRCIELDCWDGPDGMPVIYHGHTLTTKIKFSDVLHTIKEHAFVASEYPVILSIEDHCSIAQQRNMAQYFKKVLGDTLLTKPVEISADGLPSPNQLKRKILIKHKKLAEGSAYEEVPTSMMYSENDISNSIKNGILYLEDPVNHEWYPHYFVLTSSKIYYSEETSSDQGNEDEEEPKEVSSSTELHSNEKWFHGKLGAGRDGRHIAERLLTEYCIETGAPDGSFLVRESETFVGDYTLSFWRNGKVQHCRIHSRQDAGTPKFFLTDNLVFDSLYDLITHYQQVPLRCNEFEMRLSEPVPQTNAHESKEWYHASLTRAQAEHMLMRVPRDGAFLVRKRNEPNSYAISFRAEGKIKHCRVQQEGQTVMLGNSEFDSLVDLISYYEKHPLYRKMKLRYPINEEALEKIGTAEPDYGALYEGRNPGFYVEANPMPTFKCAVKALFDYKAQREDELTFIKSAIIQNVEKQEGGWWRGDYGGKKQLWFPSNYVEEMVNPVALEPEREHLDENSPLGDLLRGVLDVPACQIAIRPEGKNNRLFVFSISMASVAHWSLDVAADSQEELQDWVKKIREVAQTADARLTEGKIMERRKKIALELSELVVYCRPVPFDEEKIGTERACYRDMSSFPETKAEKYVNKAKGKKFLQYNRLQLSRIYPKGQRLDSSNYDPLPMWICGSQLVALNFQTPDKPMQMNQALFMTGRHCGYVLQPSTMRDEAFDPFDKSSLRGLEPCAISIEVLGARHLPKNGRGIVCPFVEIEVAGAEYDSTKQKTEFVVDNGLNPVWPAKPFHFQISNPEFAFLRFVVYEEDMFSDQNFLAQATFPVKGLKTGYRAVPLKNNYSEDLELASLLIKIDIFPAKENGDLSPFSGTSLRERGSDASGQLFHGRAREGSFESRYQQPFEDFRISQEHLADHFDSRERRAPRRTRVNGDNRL

[3] = target: T4, intersectin-2 (ITSN2), Q9NZM3
T4 chain: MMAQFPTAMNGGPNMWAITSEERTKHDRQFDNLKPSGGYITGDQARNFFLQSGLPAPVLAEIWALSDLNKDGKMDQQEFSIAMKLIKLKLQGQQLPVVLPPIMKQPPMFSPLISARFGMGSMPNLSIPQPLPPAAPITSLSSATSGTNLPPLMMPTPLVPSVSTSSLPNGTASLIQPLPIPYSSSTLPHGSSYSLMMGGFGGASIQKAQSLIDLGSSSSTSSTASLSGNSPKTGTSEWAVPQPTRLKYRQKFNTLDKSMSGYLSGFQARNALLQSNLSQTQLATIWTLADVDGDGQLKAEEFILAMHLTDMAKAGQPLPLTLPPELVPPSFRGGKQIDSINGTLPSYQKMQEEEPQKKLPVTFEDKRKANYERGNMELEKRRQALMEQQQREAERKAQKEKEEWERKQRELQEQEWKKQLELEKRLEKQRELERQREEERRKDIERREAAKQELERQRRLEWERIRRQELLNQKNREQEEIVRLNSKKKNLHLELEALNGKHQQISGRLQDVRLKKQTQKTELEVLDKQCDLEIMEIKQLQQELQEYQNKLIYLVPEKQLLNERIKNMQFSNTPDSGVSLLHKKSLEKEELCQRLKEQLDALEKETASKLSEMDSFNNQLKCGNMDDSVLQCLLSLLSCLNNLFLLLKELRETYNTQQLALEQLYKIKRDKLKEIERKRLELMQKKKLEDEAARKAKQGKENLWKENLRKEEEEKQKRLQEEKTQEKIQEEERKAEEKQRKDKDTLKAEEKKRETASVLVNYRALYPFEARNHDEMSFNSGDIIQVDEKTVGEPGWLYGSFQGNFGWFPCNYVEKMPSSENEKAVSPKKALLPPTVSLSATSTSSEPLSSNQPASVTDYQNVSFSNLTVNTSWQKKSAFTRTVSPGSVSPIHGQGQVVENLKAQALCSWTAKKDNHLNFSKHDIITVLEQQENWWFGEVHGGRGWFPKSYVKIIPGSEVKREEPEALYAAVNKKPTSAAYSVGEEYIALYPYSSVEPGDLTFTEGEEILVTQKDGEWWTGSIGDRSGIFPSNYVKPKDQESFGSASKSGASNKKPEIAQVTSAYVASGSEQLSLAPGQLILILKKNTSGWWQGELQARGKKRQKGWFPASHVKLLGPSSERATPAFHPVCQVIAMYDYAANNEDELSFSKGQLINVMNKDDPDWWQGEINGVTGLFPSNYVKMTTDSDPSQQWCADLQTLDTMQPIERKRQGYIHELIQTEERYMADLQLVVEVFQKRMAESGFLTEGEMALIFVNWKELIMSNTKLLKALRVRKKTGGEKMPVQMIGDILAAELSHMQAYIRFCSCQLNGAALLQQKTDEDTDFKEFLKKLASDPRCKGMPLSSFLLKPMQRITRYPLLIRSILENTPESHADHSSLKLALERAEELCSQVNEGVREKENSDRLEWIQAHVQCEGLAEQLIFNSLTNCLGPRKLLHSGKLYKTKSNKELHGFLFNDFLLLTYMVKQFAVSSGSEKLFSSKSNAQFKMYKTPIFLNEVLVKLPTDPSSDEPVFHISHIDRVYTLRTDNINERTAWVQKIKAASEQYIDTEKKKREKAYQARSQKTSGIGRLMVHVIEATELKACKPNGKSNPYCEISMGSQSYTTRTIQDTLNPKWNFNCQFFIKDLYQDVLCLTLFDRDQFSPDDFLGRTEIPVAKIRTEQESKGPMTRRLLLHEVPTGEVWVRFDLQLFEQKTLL

[4] = target: E3 ubiquitin-protein ligase CBL, P22681
[5] = target: growth factor receptor-bound protein 2 (GRB2), P62993

Sequence of amyloid-like protein 2 (APLP2), Q06481 (Q06481 32-763): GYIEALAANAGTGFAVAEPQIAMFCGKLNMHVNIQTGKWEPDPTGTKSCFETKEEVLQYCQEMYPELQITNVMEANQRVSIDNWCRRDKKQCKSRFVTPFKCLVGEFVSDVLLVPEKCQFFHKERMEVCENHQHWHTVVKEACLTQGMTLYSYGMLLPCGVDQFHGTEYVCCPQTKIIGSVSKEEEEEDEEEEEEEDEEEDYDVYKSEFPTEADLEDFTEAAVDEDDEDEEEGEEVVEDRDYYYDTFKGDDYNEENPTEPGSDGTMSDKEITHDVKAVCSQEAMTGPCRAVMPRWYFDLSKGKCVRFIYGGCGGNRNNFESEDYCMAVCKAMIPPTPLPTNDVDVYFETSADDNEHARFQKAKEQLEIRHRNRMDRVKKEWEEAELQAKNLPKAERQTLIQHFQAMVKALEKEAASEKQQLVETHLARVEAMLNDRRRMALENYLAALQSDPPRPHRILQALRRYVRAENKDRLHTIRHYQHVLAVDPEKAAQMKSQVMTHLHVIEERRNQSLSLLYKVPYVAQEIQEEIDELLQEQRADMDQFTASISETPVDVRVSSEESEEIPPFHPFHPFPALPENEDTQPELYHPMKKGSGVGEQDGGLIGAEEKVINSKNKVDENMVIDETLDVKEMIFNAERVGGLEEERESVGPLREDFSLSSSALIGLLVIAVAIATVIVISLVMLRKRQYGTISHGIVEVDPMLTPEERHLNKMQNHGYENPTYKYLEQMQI

- enrichment [1]: 1.3
- enrichment [2]: 0.59
- enrichment (PLCγ2, P16885): 0.48
- enrichment (PLCγ1, P19174): 0.87
- enrichment [3]: 0.62
- enrichment [4]: 0.74
- enrichment [5]: 0.87
B1: D181A; Y46F (protein)
chain: MEMEKEFEQIDKSGSWAAIYQDIRHEASDFPCRVAKLPKNKNRNRFRDVSPFDHSRIKLHQEDNDYINASLIKMEEAQRSYILTQGPLPNTCGHFWEMVWEQKSRGVVMLNRVMEKGSLKCAQYWPQKEEKEMIFEDTNLKLTLISEDIKSYYTVRQLELENLTTQETREILHFHYTTWPAFGVPESPASFLNFLFKVRESGSLSPEHGPVVVHCSAGIGRSGTFCLADTCLLLMDKRKDPSSVDIKKVLLEMRKFRMGLIQTADQLRFSYLAVIEGAKFIMGDSSVQDQWKELSHEDLEPPPEHIPPPPRPPKRILEPHNGKCREFFPNHQWVKEETQEDKDCPIKEEKGSPLNAAPYGIESMSQDTEVRSRVVGGSLRGAQAASPAKGEPSLPEKDEDHALSY
